Reference: US20230287598A1 (TAURUS BIOSCIENCES, published 2023)

T1: CXCR1 (UniProt P25024 1-350, limits assumed)
T1 construct: whole, on cells; DiscoveRx PathHunter cell line; any reporter tag on the receptor is not described; also called CXCR1 receptor; CXCR1-U2OS
T1 sequence (looked up): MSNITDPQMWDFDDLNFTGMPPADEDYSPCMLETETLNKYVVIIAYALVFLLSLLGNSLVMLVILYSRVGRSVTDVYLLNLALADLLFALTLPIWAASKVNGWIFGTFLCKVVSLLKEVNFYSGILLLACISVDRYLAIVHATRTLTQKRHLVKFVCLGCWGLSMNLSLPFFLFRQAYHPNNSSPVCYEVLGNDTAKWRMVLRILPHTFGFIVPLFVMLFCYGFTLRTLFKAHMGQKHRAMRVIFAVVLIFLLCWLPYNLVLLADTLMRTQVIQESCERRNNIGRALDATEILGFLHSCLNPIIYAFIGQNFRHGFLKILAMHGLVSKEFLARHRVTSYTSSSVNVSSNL


Legend:
[1] = target: T1, CXCR1; assay: flow cytometry on CXCR1-U2OS cells (parental U2OS: 5)
[2] = target: T1, CXCR1; assay: flow cytometry, CXCR1-U2OS / parental U2OS
[3] = target: T1, CXCR1; assay: flow cytometry, median fluorescence CXCR1-U2OS / parental U2OS

Row | Binder | median AFU on CXCR1-U2OS [1] | FACS CXCR1/Parental Ratio [2] | Ratio of CXCR1/Parental [3]
1 | VH1-46+CDR3-IL8 IgG (antibody, also called VH1-46 BLVCDR3IL8) VH: QVQLVQSGAEVKKPGASVKVSCKASGYTFTSYYMHWVRQAPGQGLEWMGIINPSGGSTSYAQKFQGRVTMTRDTSTSTVYMELSSLRSEDTAVYYCTSVHQETKKYQSPRSAKELRCQCIKTYSKPFHPKFIKELRVIESGPHCANTEIIVKLSDGRELCLDPKENWVQRVVEKFLKRAENSGSGSYTYNYEWHVDVWGQGLLVTVSSAS light: not shown | 6 AFU |  | 
2 | VH1-24+CDR3-IL8 IgG (antibody, also called VH1-24 BLVCDR3IL8) VH: QVQLVQSGAEVKKPGASVKVSCKVSGYTLTELSMHWVRQAPGKGLEWMGGFDPEDGETIYAQKFQGRVTMTEDTSTDTAYMELSSLRSEDTAVYYCTSVHQETKKYQSPRSAKELRCQCIKTYSKPFHPKFIKELRVIESGPHCANTEIIVKLSDGRELCLDPKENWVQRVVEKFLKRAENSGSGSYTYNYEWHVDVWGQGLLVTVSSAS light: not shown | 23 AFU |  | 
3 | BLV1H12 IgG (antibody, also called ULcowV) VH: QVQLRESGPSLVKPSQTLSLTCTASGFSLSDKAVGWVRQAPGKALEWLGSIDTGGNTGYNPGLKSRLSITKDNSKSQVSLSVSSVTTEDSATYYCTSVHQETKKYQSCPDGYRERSDCSNRPACGTSDCCRVSVFGNCLTTLPVSYSYTYNYEWHVDVWGQGLLVTVSS light: not shown | 9 AFU | 1.9 | 1.9
